# Assay results reported in the supplement of paper PMC11246515.
# ± gives the standard deviation of the averaged measurements.
# Experiment: total protein half-life in vivo (active degradation + dilution); higher = more stable protein
# [1] = E. coli NCM3722 delta-clpP delta-lon delta-hslV, growth: N-lim chemostat, doubling time 6 h
# [2] = E. coli NCM3722 delta-clpP, growth: N-lim chemostat, doubling time 6 h
# [3] = E. coli NCM3722 delta-hslV, growth: N-lim chemostat, doubling time 6 h
# [4] = E. coli NCM3722 delta-lon, growth: N-lim chemostat, doubling time 6 h
# [5] = E. coli NCM3722 delta-smpB, growth: N-lim chemostat, doubling time 6 h
# [6] = wild type E. coli NCM3722, growth: C-lim chemostat, doubling time 3 h
# [7] = wild type E. coli NCM3722, growth: C-lim chemostat, doubling time 6 h
# [8] = wild type E. coli NCM3722, growth: C-lim chemostat, doubling time 12 h
# [9] = wild type E. coli NCM3722, growth: N-lim chemostat, doubling time 6 h
# [10] = wild type E. coli NCM3722, growth: N-lim chemostat, doubling time 12 h
# [11] = wild type E. coli NCM3722, growth: P-lim chemostat, doubling time 6 h
# [12] = wild type E. coli NCM3722, growth: P-lim chemostat, doubling time 12 h
Sequence,total protein half-life in vivo [1] [h],total protein half-life in vivo [2] [h],total protein half-life in vivo [3] [h],total protein half-life in vivo [4] [h],total protein half-life in vivo [5] [h],total protein half-life in vivo [6] [h],total protein half-life in vivo [7] [h],total protein half-life in vivo [8] [h],total protein half-life in vivo [9] [h],total protein half-life in vivo [10] [h],total protein half-life in vivo [11] [h],total protein half-life in vivo [12] [h]
MATFSLGKHPHVELCDLLKLEGWSESGAQAKIAIAEGQVKVDGAVETRKRCKIVAGQTVSFAGHSVQVVA [P0AAS7],4.09 ± 0.36,3.39 ± 0.29,2.72 ± 0.6,4.18 ± 1.2,2.3 ± 0.15,2.4 ± 0.59,4 ± 0.91,4.46 ± 0.44,2.71 ± 0.057,3.68 ± 0.15,1.97 ± 0.26,3.576 ± 0.012
MSGKPAARQGDMTQYGGSIVQGSAGVRIGAPTGVACSVCPGGVTSGHPVNPLLGAKVLPGETDIALPGPLPFILSRTYSSYRTKTPAPVGSLGPGWKMPADIRLQLRDNTLILSDNGGRSLYFEHLFPGEDGYSRSESLWLVRGGVAKLDEGHRLAALWQALPEELRLSPHRYLATNSPQGPWWLLGWCERVPEADEVLPAPLPPYRVLTGLVDRFGRTQTFHREAAGEFSGEITGVTDGAGRHFRLVLTTQAQRAEEARQQAISGGTEPSAFPDTLPGYTEYGRDNGIRLSAVWLTHDPEYPENLPAAPLVRYGWTPRGELAAVYDRSNTQVRSFTYDDKYRGRMVAHRHTGRPEICYRYDSDGRVTEQLNPAGLSYTYQYEKDRITITDSLNRREVLHTQGEGGLKRVVKKEHADGSVTQSQFDAVGRLRAQTDAAGRTTEYSPDVVTGLITRITTPDGRASAFYYNHHSQLTSATGPDGLEIRREYDEWGRLIQETAPDGDITRYRYDNPHSDLPCATEDATGSRKTMTWSRYGQLLSFTDCSGYVTRYDHDRFGQVTAVHREEGLSQYRAYDSRGQLIAVKDTQGHETRYEYNAAGDLTTVIAPDGSRNGTQYDAWGKAICTTQGGLTRSMEYDAAGRVIRLTSENGSHTTFRYDVLDRLIQETGFDGRTQRYHHDLTGKLIRSEDEGLVTHWHYDEADRLTHRTVNGETAERWQYDERGWLTDISHISEGHRVTVHYGYDSKGRLASEHLTVHHPQTNELLWQHETRHAYNAQGLANRCIPDSLPAVEWLTYGSGWLSGMKLGDTPLVEYTRDRLHRETLRSFGRYELTTAYTPAGQLQSQHLNSLLSDRDYTWNDNGELIRISSPRQTRSYSYSTTGRLTGVHTTAANLDIRIPYTTDPAGNRLPDPELHPDSALSMWPDNRIARDAHYLYRYDRHGRLTEKTDLIPEGVIRTDDERTHRYHYDSQHRLVHYTRTQYAEPLVESRYLYDPLGRRVAKRVWRRERDLTGWMSLSRKPQVTWYGWDGDRLTTIQNDRTRIQTIYQPGSFTPLIRVETATGELAKTQRRSLADTLQQSGGEDGGSVVFPPVLVQMLDRLESEILADRVSEESRRWLASCGLTVAQMQSQMDPVYTPARKIHLYHCDHRGLPLALISTEGTTAWYAEYDEWGNLLNEENPHQLQQLIRLPGQQYDEESGLYYNRHRYYDPLQGRYITQDPIGLKGGWNFYQYPLNPISNIDPLGLETLKCIKPLHSMGGTGERSGPDIWGNPFYHQYLCVPDGKGDYTCGGQDQRGESKGDGLWGPGKASNDTKEAAGRCDLVETDNSCVENCLKGKFKEVRPRYSVLPDIFTPINLGLFKNCQDWSNDSLETCKMKCSGNNIGRFIRFVFTGVM,,,,,,,,,,,,13.1
MAAINTKVKKAVIPVAGLGTRMLPATKAIPKEMLPLVDKPLIQYVVNECIAAGITEIVLVTHSSKNSIENHFDTSFELEAMLEKRVKRQLLDEVQSICPPHVTIMQVRQGLAKGLGHAVLCAHPVVGDEPVAVILPDVILDEYESDLSQDNLAEMIRRFDETGHSQIMVEPVADVTAYGVVDCKGVELAPGESVPMVGVVEKPKADVAPSNLAIVGRYVLSADIWPLLAKTPPGAGDEIQLTDAIDMLIEKETVEAYHMKGKSHDCGNKLGYMQAFVEYGIRHNTLGTEFKAWLEEEMGIKK [P0AEP3],4.77 ± 0.41,4.87 ± 0.81,4.91 ± 0.62,5.41 ± 0.14,4.728 ± 0.0092,,5.71 ± 0.23,10.8 ± 1.1,4.65 ± 0.13,7.63 ± 0.25,5.72 ± 0.074,11.6 ± 0.14
MIVFSSLQIRRGVRVLLDNATATINPGQKVGLVGKNGCGKSTLLALLKNEISADGGSYTFPGSWQLAWVNQETPALPQAALEYVIDGDREYRQLEAQLHDANERNDGHAIATIHGKLDAIDAWSIRSRAASLLHGLGFSNEQLERPVSDFSGGWRMRLNLAQALICRSDLLLLDEPTNHLDLDAVIWLEKWLKSYQGTLILISHDRDFLDPIVDKIIHIEQQSMFEYTGNYSSFEVQRATRLAQQQAMYESQQERVAHLQSYIDRFRAKATKAKQAQSRIKMLERMELIAPAHVDNPFRFSFRAPESLPNPLLKMEKVSAGYGDRIILDSIKLNLVPGSRIGLLGRNGAGKSTLIKLLAGELAPVSGEIGLAKGIKLGYFAQHQLEYLRADESPIQHLARLAPQELEQKLRDYLGGFGFQGDKVTEETRRFSGGEKARLVLALIVWQRPNLLLLDEPTNHLDLDMRQALTEALIEFEGALVVVSHDRHLLRSTTDDLYLVHDRKVEPFDGDLEDYQQWLSDVQKQENQTDEAPKENANSAQARKDQKRREAELRAQTQPLRKEIARLEKEMEKLNAQLAQAEEKLGDSELYDQSRKAELTACLQQQASAKSGLEECEMAWLEAQEQLEQMLLEGQSN,6.02 ± 0.54,4.89 ± 0.15,2.697 ± 0.016,3.16 ± 0.084,2.95 ± 0.13,2.39 ± 0.12,4.3 ± 0.48,6.5 ± 0.051,2.95 ± 0.15,3.94 ± 0.5,3.58 ± 0.25,6.36 ± 0.25
MSKVCIIAWVYGRVQGVGFRYTTQYEAKRLGLTGYAKNLDDGSVEVVACGEEGQVEKLMQWLKSGGPRSARVERVLSEPHHPSGELTDFRIR [P0AB65],6.07 ± 0.29,5.82 ± 0.093,5.59 ± 0.28,5.89 ± 0.12,5.9 ± 0.89,3.38 ± 0.23,5.96 ± 0.08,8.66,5.32 ± 0.17,9.77 ± 1.8,,
MNKNRGFTPLAVVLMLSGSLALTGCDDKQAQQGGQQMPAVGVVTVKTEPLQITTELPGRTSAYRIAEVRPQVSGIILKRNFKEGSDIEAGVSLYQIDPATYQATYDSAKGDLAKAQAAANIAQLTVNRYQKLLGTQYISKQEYDQALADAQQANAAVTAAKAAVETARINLAYTKVTSPISGRIGKSNVTEGALVQNGQATALATVQQLDPIYVDVTQSSNDFLRLKQELANGTLKQENGKAKVSLITSDGIKFPQDGTLEFSDVTVDQTTGSITLRAIFPNPDHTLLPGMFVRARLEEGLNPNAILVPQQGVTRTPRGDATVLVVGADDKVETRPIVASQAIGDKWLVTEGLKAGDRVVISGLQKVRPGVQVKAQEVTADNNQQAASGAQPEQSKS [P0AE06],5.95 ± 0.32,,6.3 ± 0.28,6.62 ± 0.54,5.93 ± 0.21,2.921 ± 0.024,5.84 ± 0.46,12.1 ± 0.26,6.134 ± 0.05,13.33 ± 0.11,5.814 ± 0.041,12.5 ± 0.88
MSESLSWMQTGDTLALSGELDQDVLLPLWEMREEAVKGITCIDLSRVSRVDTGGLALLLHLIDLAKKQGNNVTLQGVNDKVYTLAKLYNLPADVLPR,6.59 ± 0.72,,6.39 ± 0.34,5.57 ± 0.6,5.75 ± 0.51,2.98 ± 0.28,5.387 ± 0.018,10.9 ± 4.8,4.86 ± 0.53,10.2,5.332 ± 0.016,11.9 ± 0.66
